Experiments:
Assay in all cases: cleavage_in_vitro
[1] = tested on: T1, OMNI-58 (Collinsella sp. AM13-34); conditions: PAM NNNNCCA; TXTL
T1 sequence: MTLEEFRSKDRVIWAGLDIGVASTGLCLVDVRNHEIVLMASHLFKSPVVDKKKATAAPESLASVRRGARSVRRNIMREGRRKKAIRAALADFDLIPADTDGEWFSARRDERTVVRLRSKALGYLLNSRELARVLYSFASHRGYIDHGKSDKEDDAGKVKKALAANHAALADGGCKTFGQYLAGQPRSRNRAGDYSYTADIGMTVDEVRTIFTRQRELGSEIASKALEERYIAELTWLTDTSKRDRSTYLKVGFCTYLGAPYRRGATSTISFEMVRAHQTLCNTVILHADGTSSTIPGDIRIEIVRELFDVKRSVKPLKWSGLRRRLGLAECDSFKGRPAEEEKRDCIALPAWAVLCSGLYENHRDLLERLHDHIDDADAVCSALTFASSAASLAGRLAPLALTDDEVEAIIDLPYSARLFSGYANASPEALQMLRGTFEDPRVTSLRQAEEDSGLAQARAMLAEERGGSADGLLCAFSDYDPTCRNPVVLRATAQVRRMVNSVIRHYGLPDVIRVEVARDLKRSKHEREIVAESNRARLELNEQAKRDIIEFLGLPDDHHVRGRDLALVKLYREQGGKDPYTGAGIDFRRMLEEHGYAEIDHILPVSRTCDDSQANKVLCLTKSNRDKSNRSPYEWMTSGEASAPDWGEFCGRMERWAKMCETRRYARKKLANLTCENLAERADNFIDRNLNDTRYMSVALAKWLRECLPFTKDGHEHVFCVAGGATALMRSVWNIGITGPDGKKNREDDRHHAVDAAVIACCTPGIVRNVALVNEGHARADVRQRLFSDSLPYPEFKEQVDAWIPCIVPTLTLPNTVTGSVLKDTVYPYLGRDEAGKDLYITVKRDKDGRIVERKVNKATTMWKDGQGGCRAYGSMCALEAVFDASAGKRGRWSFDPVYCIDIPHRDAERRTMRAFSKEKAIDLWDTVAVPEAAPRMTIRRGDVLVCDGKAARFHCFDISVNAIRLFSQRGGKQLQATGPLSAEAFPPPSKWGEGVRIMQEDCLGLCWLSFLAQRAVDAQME

[2] = tested on: T2, OMNI-71 (Hyphobacterium sp. 2ED5); conditions: PAM NGG; TXTL
T2 sequence: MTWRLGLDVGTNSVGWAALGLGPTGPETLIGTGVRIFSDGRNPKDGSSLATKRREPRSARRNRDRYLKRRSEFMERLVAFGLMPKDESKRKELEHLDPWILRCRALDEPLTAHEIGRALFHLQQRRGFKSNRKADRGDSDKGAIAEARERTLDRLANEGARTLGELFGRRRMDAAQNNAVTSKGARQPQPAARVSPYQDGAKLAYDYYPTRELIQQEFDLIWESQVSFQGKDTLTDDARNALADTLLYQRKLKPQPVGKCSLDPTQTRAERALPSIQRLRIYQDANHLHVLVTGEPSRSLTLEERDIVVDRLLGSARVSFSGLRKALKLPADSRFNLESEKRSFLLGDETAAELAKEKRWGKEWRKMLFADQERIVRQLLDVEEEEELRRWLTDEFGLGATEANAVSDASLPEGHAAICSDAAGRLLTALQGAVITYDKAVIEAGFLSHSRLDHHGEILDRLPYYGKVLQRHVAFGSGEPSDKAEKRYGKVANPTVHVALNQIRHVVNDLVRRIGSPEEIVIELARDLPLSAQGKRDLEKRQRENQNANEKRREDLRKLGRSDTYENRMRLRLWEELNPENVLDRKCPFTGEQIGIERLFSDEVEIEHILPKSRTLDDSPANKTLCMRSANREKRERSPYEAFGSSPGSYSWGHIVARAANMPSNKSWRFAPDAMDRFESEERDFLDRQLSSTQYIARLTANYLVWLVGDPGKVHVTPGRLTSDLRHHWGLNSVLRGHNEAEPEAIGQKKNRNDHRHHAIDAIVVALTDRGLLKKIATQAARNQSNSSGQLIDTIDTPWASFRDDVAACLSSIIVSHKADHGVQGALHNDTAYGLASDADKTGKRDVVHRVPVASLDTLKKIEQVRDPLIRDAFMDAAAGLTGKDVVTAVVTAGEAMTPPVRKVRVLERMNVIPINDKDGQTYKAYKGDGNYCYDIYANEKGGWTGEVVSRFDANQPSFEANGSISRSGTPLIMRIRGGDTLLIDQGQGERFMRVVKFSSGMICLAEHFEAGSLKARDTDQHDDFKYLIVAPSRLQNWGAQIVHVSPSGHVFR

[3] = tested on: T3, OMNI-56 (Chryseobacterium sp. G0240); conditions: PAM NNRNGG; TXTL
T3 sequence: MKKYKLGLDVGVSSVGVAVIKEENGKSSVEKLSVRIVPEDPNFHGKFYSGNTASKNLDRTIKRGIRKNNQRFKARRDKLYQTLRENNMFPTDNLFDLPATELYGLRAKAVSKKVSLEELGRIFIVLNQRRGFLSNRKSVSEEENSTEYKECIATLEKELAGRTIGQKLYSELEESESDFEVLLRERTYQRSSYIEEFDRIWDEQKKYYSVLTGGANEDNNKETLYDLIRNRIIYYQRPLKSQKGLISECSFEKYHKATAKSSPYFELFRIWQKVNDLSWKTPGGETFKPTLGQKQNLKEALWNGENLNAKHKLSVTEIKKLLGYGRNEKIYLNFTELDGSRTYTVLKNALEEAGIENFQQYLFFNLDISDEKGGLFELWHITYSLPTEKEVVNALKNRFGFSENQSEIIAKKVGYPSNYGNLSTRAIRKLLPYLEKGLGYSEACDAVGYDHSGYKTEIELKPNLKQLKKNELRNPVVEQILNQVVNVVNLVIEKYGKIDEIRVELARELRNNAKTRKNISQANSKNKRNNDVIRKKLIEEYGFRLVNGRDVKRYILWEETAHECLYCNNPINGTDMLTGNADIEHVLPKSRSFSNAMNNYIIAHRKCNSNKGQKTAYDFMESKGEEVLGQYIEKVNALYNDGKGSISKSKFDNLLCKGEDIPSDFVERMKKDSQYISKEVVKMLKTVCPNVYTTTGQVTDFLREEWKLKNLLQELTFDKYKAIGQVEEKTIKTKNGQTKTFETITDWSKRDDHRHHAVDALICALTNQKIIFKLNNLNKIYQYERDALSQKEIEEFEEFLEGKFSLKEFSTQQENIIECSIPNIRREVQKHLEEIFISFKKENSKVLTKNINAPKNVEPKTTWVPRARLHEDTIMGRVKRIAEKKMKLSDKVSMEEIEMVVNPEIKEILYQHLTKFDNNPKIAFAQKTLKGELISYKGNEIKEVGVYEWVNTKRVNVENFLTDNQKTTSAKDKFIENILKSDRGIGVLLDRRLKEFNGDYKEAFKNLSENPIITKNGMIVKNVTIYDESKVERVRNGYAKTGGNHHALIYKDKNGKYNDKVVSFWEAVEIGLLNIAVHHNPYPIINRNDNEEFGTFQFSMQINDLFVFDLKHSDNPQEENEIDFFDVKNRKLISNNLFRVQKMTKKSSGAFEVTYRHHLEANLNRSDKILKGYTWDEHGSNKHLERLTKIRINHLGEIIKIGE

[4] = tested on: T4, OMNI-65 (Faecalibacterium sp. An192); conditions: PAM NNNVTA; TXTL
T4 sequence: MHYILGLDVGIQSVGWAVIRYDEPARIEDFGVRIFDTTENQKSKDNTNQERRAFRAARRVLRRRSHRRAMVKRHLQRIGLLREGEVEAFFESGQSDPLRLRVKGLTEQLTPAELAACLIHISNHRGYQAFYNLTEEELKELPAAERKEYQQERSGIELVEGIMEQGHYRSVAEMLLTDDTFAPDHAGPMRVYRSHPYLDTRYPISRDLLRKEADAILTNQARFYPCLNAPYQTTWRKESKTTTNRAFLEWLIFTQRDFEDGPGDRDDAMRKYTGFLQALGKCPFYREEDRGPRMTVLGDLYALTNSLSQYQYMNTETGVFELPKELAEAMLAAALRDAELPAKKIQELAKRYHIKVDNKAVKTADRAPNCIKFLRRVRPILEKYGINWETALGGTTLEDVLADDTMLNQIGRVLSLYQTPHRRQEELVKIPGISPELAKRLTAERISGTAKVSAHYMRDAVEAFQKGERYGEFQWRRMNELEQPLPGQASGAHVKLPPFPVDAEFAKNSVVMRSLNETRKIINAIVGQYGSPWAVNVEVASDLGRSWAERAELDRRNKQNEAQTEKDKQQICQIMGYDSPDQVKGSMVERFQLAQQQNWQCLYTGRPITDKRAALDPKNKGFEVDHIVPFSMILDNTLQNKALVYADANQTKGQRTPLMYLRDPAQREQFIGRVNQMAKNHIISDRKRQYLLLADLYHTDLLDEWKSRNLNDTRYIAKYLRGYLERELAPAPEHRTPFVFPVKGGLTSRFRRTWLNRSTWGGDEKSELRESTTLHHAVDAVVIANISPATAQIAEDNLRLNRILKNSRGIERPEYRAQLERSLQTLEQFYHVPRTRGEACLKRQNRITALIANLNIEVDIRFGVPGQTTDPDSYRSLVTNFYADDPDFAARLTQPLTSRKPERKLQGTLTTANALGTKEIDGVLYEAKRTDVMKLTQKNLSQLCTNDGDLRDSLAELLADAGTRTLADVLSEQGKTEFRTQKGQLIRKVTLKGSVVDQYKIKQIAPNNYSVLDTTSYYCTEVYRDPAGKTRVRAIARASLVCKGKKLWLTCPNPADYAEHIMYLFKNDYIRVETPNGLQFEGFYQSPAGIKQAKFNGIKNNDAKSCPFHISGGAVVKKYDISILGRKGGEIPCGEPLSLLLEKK

| Sequence | activity (1-depletion score) [1] | activity (1-depletion score) [3] | activity (1-depletion score) [4] | also measured |
| --- | --- | --- | --- | --- |
| GGAAGAGCAGAGCCUUGGUCUCGCCCUAGCGCGGAAAAACGUUUGGGCAAGAGGGCCCGUUAAAGACGGGUCACUCGCGGAGUAUAUCCCGCAGGGUGCUAUUCGCACUCUGCGGGUGAUCUCCUAUUCCCUCCUUUUUU / GGAAGAGCAGAGCCTTGGTCTCNNNNNNNN / NNNNNNNNGAGACCAAGGCTCTGCTCTTCC | 0.86 |  |  |  |
| GGAAGAGCAGAGCCUUGGUCUCGCCCUAGCGCGGAAAAACGUUUGGGCAAGAGGGCCCGUUAAAGACGGGUCACUCGCGGAGUAUAUCCCGCAGGGUGCUUUUCGCACUCUGCGGGUGAUCUCCUUUUCCCUCCUUUUUU / GGAAGAGCAGAGCCTTGGTCTCNNNNNNNN / NNNNNNNNGAGACCAAGGCTCTGCTCTTCC | 0.88 |  |  |  |
| GGAAGAGCAGAGCCUUGGUCUCGCCCUAGCGCGUUGGAAAAGUAACGUUUGGGCAAGAGGGCCCGUUAAAGACGGGUCACUCGCGGAGUAUAUCCCGCAGGGUGCUUUUCGCACUCUGCGGGUGAUCUCCUUUUCCCUCCUUUUUU / GGAAGAGCAGAGCCTTGGTCTCNNNNNNNN / NNNNNNNNGAGACCAAGGCTCTGCTCTTCC | 0.93 |  |  |  |
| GGAAGAGCAGAGCCUUGGUCUCGUUCCGGUUGGAGAAAUCUUUCCGGUAACAAGGUUUAGACCACAAAAUGGAACGGCCUCUUCGGGGGUCGUUCUUUUUUU / GGAAGAGCAGAGCCTTGGTCTCNNNNNNNN / NNNNNNNNGAGACCAAGGCTCTGCTCTTCC |  |  |  | activity (1-depletion score) [2]: 0.96 |
| GGAAGAGCAGAGCCUUGGUCUCGUUGUGAAUUGCUUUCAAAAUUUAUUAUCUUCGAAAUUGGAUUAUAAAUUUUGAAAGCAAUUCACAAUAAGGAUUAUUCCGUUGUGAAAACAUUUAAGCCCCCUCGUCUUACCAUACGGGGGAUUUUUU / GGAAGAGCAGAGCCTTGGTCTCNNNNNNNN / NNNNNNNNGAGACCAAGGCTCTGCTCTTCC |  | 0.53 |  |  |
| GGAAGAGCAGAGCCUUGGUCUCGUUGUGAAUUGCUUUCAUAAUUUAUUAUCUUCGAAAUUGGAUUAUAAAUUAUGAAAGCAAUUCACAAUAAGGAUUAUUCCGUUGUGAAAACAUUUAAGCCCCCUCGUCUUACCAUACGGGGGAUUUUUU / GGAAGAGCAGAGCCTTGGTCTCNNNNNNNN / NNNNNNNNGAGACCAAGGCTCTGCTCTTCC |  | 0.69 |  |  |
| GGAAGAGCAGAGCCUUGGUCUCGUUGUGAAUUGCUUUCGAAAGAAAGCAAUUCACAAUAAGGAUUAUUCCGUUGUGAAAACAUUUAAGCCCCCUCGUCUUACCAUACGGGGGAUUUUUU / GGAAGAGCAGAGCCTTGGTCTCNNNNNNNN / NNNNNNNNGAGACCAAGGCTCTGCTCTTCC |  | 0.69 |  |  |
| GGAAGAGCAGAGCCUUGGUCUCGUUUUGGUUCUCUGAGAAACAGAAGUUCUAAGAUAAGGCUUUACGCCGCAGGGUAUGGUGGUAUCCCAAAUAUUCCACCAUUUGAUUGUAUCUGAAAGCGUCCGGUUCGGGCGCUUUUU / GGAAGAGCAGAGCCTTGGTCTCNNNNNNNN / NNNNNNNNGAGACCAAGGCTCTGCTCTTCC |  |  | 0.94 |  |
| GGAAGAGCAGAGCCUUGGUCUCGUUUUGGUUCUCUGAUGGGAAACAUCAGAAGUUCUAAGAUAAGGCUUUACGCCGCAGGGUAUGGUGGUAUCCCAAAUAUUCCACCAUUUGAUUGUAUCUGAAAGCGUCCGGUUCGGGCGCUUUUU / GGAAGAGCAGAGCCTTGGTCTCNNNNNNNN / NNNNNNNNGAGACCAAGGCTCTGCTCTTCC |  |  | 0.94 |  |
| GGAAGAGCAGAGCCUUGGUCUCGUUUUGGUUCUUCUGGAAACAGAAGUUCUAAGAUAAGGCUUUACGCCGCAGGGUAUGGUGGUAUCCCAAAUAUUCCACCAUUUGAUUGUAUCUGAAAGCGUCCGGUUCGGGCGCUUUUU / GGAAGAGCAGAGCCTTGGTCTCNNNNNNNN / NNNNNNNNGAGACCAAGGCTCTGCTCTTCC |  |  | 0.93 |  |

— patent US20230383273
